We go through six molecules from patent US20250025478A1 (published 2025).

First the molecules themselves.
B1: ALDH1B1 (enzyme, Homo sapiens, UniProt P30837 18-517, looked up)
chain: RYSSAAALPSPILNPDIPYNQLFINNEWQDAVSKKTFPTVNPTTGEVIGHVAEGDRADVDRAVKAAREAFRLGSPWRRMDASERGRLLNRLADLVERDRVYLASLETLDNGKPFQESYALDLDEVIKVYRYFAGWADKWHGKTIPMDGQHFCFTRHEPVGVCGQIIPWNFPLVMQGWKLAPALATGNTVVMKVAEQTPLSALYLASLIKEAGFPPGVVNIITGYGPTAGAAIAQHVDVDKVAFTGSTEVGHLIQKAAGDSNLKRVTLELGGKSPSIVLADADMEHAVEQCHEALFFNMGQCCCAGSRTFVEESIYNEFLERTVEKAKQRKVGNPFELDTQQGPQVDKEQFERVLGYIQLGQKEGAKLLCGGERFGERGFFIKPTVFGGVQDDMRIAKEEIFGPVQPLFKFKKIEEVVERANNTRYGLAAAVFTRDLDKAMYFTQALQAGTVWVNTYNIVTCHTPFGGFKESGNGRELGEDGLKAYTEVKTVTIKVPQKNS
notes: Endogenous protein found by proximity labelling/MS; also called Aldehyde dehydrogenase X, mitochondrial
B2: SPTLC1 (enzyme, Homo sapiens, UniProt O15269 1-473, looked up)
chain: MATATEQWVLVEMVQALYEAPAYHLILEGILILWIIRLLFSKTYKLQERSDLTVKEKEELIEEWQPEPLVPPVPKDHPALNYNIVSGPPSHKTVVNGKECINFASFNFLGLLDNPRVKAAALASLKKYGVGTCGPRGFYGTFDVHLDLEDRLAKFMKTEEAIIYSYGFATIASAIPAYSKRGDIVFVDRAACFAIQKGLQASRSDIKLFKHNDMADLERLLKEQEIEDQKNPRKARVTRRFIVVEGLYMNTGTICPLPELVKLKYKYKARIFLEESLSFGVLGEHGRGVTEHYGINIDDIDLISANMENALASIGGFCCGRSFVIDHQRLSGQGYCFSASLPPLLAAAAIEALNIMEENPGIFAVLKEKCGQIHKALQGISGLKVVGESLSPAFHLQLEESTGSREQDVRLLQEIVDQCMNRSIALTQARYLEKEEKCLPPPSIRVVVTVEQTEEELERAASTIKEVAQAVLL
notes: Endogenous protein found by proximity labelling/MS; also called Serine palmitoyltransferase 1
B3: SARS2 (enzyme, Homo sapiens, UniProt Q9NP81 35-518, looked up)
chain: TTEKRNRNLLYEYAREGYSALPQLDIERFCACPEEAAHALELRKGELRSADLPAIISTWQELRQLQEQIRSLEEEKAAVTEAVRALLANQDSGEVQQDPKYQGLRARGREIRKELVHLYPREAQLEEQFYLQALKLPNQTHPDVPVGDESQARVLHMVGDKPVFSFQPRGHLEIGEKLDIIRQKRLSHVSGHRSYYLRGAGALLQHGLVNFTFNKLLRRGFTPMTVPDLLRGAVFEGCGMTPNANPSQIYNIDPARFKDLNLAGTAEVGLAGYFMDHTVAFRDLPVRMVCSSTCYRAETNTGQEPRGLYRVHHFTKVEMFGVTGPGLEQSSQLLEEFLSLQMEILTELGLHFRVLDMPTQELGLPAYRKFDIEAWMPGRGRFGEVTSASNCTDFQSRRLHIMFQTEAGELQFAHTVNATACAVPRLLIALLESNQQKDGSVLVPPALQSYLGTDRITAPTHVPLQYIGPNQPRKPGLPGQPAVS
notes: Endogenous protein found by proximity labelling/MS; also called Serine -- tRNA ligase, mitochondrial
B4: CPEB4 (other, Homo sapiens, UniProt Q17RY0-2 1-712, looked up)
chain: MGDYGFGVLVQSNTGNKSAFPVRFHPHLQPPHHHQNATPSPAAFINNNTAANGSSAGSAWLFPAPATHNIQDEILGSEKAKSQQQEQQDPLEKQQLSPSPGQEAGILPETEKAKSEENQGDNSSENGNGKEKIRIESPVLTGFDYQEATGLGTSTQPLTSSASSLTGFSNWSAAIAPSSSTIINEDASFFHQGGVPAASANNGALLFQNFPHHVSPGFGGSFSPQIGPLSQHHPHHPHFQHHHSQHQQQRRSPASPHPPPFTHRNAAFNQLPHLANNLNKPPSPWSSYQSPSPTPSSSWSPGGGGYGGWGGSQGRDHRRGLNGGITPLNSISPLKKNFASNHIQLQKYARPSSAFAPKSWMEDSLNRADNIFPFPDRPRTFDMHSLESSLIDIMRAENDTIKARTYGRRRGQSSLFPMEDGFLDDGRGDQPLHSGLGSPHCFSHQNGERVERYSRKVFVGGLPPDIDEDEITASFRRFGPLIVDWPHKAESKSYFPPKGYAFLLFQDESSVQALIDACIEEDGKLYLCVSSPTIKDKPVQIRPWNLSDSDFVMDGSQPLDPRKTIFVGGVPRPLRAVELAMIMDRLYGGVCYAGIDTDPELKYPKGAGRVAFSNQQSYIAAISARFVQLQHGEIDKRVEVKPYVLDDQLCDECQGARCGGKFAPFFCANVTCLQYYCEYCWAAIHSRAGREFHKPLVKEGGDRPRHISFRWN
notes: Endogenous protein found by proximity labelling/MS
B5: MAP4K4 (enzyme, Homo sapiens, UniProt O95819-4 2-1165, looked up)
chain: ANDSPAKSLVDIDLSSLRDPAGIFELVEVVGNGTYGQVYKGRHVKTGQLAAIKVMDVTEDEEEEIKLEINMLKKYSHHRNIATYYGAFIKKSPPGHDDQLWLVMEFCGAGSITDLVKNTKGNTLKEDWIAYISREILRGLAHLHIHHVIHRDIKGQNVLLTENAEVKLVDFGVSAQLDRTVGRRNTFIGTPYWMAPEVIACDENPDATYDYRSDLWSCGITAIEMAEGAPPLCDMHPMRALFLIPRNPPPRLKSKKWSKKFFSFIEGCLVKNYMQRPSTEQLLKHPFIRDQPNERQVRIQLKDHIDRTRKKRGEKDETEYEYSGSEEEEEEVPEQEGEPSSIVNVPGESTLRRDFLRLQQENKERSEALRRQQLLQEQQLREQEEYKRQLLAERQKRIEQQKEQRRRLEEQQRREREARRQQEREQRRREQEEKRRLEELERRRKEEEERRRAEEEKRRVEREQEYIRRQLEEEQRHLEVLQQQLLQEQAMLLHDHRRPHPQHSQQPPPPQQERSKPSFHAPEPKAHYEPADRAREVPVRTTSRSPVLSRRDSPLQGSGQQNSQAGQRNSTSIEPRLLWERVEKLVPRPGSGSSSGSSNSGSQPGSHPGSQSGSGERFRVRSSSKSEGSPSQRLENAVKKPEDKKEVFRPLKPAGEVDLTALAKELRAVEDVRPPHKVTDYSSSSEESGTTDEEDDDVEQEGADESTSGPEDTRAASSLNLSNGETESVKTMIVHDDVESEPAMTPSKEGTLIVRQTQSASSTLQKHKSSSSFTPFIDPRLLQISPSSGTTVTSVVGFSCDGMRPEAIRQDPTRKGSVVNVNPTNTRPQSDTPEIRKYKKRFNSEILCAALWGVNLLVGTESGLMLLDRSGQGKVYPLINRRRFQQMDVLEGLNVLVTISGKKDKLRVYYLSWLRNKILHNDPEVEKKQGWTTVGDLEGCVHYKVVKYERIKFLVIALKSSVEVYAWAPKPYHKFMAFKSFGELVHKPLLVDLTVEEGQRLKVIYGSCAGFHAVDVDSGSVYDIYLPTHVRKNPHSMIQCSIKPHAIIILPNTDGMELLVCYEDEGVYVNTYGRITKDVVLQWGEMPTSVAYIRSNQTMGWGEKAIEIRSVETGHLDGVFMHKRAQRLKFLCERNDKVFFASVRSGGSSQVYFMTLGRTSLLSW
notes: as for B4
B6: FLII (other, Homo sapiens, UniProt Q13045-2 1-1214, looked up)
chain: MEATGVLPFVRGVDLSGNDFKGGYFPENVKAMTSLRWLKLNRTGLCYLPEELAALQKLEHLSVSHNNLTTLHGELSSLPSLRAIVARANSLKNSGVPDDIFKLDDLSVLDLSHNQLTECPRELENAKNMLVLNLSHNRQLPAMTALQTLHLRSTQRTQSNLPTSLEGLSNLADVDLSCNDLTRVPECLYTLPSLRRLNLSSNQITELSLCIDQWVHVETLNLSRNQLTSLPSAICKLSKLKKLYLNSNKLDFDGLPSGIGKLTNLEEFMAANNNLELVPESLCRCPKLRKLVLNKNHLVTLPEAIHFLTEIEVLDVRENPNLVMPPKPADRAAEWYNIDFSLQNQLRLAGASPATVAAAAAGSGPKDPMARKMRLRRRKDSAQDDQAKQVLKGMSDVAQEKNKKQEESADARAPSGKVRRWDQGLEKPRLDYSEFFTEDVGQLPGLTIWQIENFVPVLVEEAFHGKFYEADCYIVLKTFLDDSGSLNWEIYYWIGGEATLDKKACSAIHAVNLRNYLGAECRTVREEMGDESEEFLQVFDNDISYIEGGTASGFYTVEDTHYVTRMYRVYGKKNIKLEPVPLKGTSLDPRFVFLLDRGLDIYVWRGAQATLSSTTKARLFAEKINKNERKGKAEITLLVQGQELPEFWEALGGEPSEIKKHVPEDFWPPQPKLYKVGLGLGYLELPQINYKLSVEHKQRPKVELMPRMRLLQSLLDTRCVYILDCWSDVFIWLGRKSPRLVRAAALKLGQELCGMLHRPRHATVSRSLEGTEAQVFKAKFKNWDDVLTVDYTRNAEAVLQSPGLSGKVKRDAEKKDQMKADLTALFLPRQPPMSLAEAEQLMEEWNEDLDGMEGFVLEGKKFARLPEEEFGHFYTQDCYVFLCRYWVPVEYEEEEKKEDKEEKAEGKEGEEATAEAEEKQPEEDFQCIVYFWQGREASNMGWLTFTFSLQKKFESLFPGKLEVVRMTQQQENPKFLSHFKRKFIIHRGKRKAVQGAQQPSLYQIRTNGSALCTRCIQINTDSSLLNSEFCFILKVPFESEDNQGIVYAWVGRASDPDEAKLAEDILNTMFDTSYSKQVINEGEEPENFFWVGIGAQKPYDDDAEYMKHTRLFRCSNEKGYFAVTEKCSDFCQDDLADDDIMLLDNGQEVYMWVGTQTSQVEIKLSLKACQVYIQHMRSKEHERPRRLRLVRKGNEQHAFTRCFHAWSAFCKALA
notes: Endogenous protein found by proximity labelling/MS; also called Protein flightless-1 homolog

T1 sequence (Q63HN8 whole entry N1045D): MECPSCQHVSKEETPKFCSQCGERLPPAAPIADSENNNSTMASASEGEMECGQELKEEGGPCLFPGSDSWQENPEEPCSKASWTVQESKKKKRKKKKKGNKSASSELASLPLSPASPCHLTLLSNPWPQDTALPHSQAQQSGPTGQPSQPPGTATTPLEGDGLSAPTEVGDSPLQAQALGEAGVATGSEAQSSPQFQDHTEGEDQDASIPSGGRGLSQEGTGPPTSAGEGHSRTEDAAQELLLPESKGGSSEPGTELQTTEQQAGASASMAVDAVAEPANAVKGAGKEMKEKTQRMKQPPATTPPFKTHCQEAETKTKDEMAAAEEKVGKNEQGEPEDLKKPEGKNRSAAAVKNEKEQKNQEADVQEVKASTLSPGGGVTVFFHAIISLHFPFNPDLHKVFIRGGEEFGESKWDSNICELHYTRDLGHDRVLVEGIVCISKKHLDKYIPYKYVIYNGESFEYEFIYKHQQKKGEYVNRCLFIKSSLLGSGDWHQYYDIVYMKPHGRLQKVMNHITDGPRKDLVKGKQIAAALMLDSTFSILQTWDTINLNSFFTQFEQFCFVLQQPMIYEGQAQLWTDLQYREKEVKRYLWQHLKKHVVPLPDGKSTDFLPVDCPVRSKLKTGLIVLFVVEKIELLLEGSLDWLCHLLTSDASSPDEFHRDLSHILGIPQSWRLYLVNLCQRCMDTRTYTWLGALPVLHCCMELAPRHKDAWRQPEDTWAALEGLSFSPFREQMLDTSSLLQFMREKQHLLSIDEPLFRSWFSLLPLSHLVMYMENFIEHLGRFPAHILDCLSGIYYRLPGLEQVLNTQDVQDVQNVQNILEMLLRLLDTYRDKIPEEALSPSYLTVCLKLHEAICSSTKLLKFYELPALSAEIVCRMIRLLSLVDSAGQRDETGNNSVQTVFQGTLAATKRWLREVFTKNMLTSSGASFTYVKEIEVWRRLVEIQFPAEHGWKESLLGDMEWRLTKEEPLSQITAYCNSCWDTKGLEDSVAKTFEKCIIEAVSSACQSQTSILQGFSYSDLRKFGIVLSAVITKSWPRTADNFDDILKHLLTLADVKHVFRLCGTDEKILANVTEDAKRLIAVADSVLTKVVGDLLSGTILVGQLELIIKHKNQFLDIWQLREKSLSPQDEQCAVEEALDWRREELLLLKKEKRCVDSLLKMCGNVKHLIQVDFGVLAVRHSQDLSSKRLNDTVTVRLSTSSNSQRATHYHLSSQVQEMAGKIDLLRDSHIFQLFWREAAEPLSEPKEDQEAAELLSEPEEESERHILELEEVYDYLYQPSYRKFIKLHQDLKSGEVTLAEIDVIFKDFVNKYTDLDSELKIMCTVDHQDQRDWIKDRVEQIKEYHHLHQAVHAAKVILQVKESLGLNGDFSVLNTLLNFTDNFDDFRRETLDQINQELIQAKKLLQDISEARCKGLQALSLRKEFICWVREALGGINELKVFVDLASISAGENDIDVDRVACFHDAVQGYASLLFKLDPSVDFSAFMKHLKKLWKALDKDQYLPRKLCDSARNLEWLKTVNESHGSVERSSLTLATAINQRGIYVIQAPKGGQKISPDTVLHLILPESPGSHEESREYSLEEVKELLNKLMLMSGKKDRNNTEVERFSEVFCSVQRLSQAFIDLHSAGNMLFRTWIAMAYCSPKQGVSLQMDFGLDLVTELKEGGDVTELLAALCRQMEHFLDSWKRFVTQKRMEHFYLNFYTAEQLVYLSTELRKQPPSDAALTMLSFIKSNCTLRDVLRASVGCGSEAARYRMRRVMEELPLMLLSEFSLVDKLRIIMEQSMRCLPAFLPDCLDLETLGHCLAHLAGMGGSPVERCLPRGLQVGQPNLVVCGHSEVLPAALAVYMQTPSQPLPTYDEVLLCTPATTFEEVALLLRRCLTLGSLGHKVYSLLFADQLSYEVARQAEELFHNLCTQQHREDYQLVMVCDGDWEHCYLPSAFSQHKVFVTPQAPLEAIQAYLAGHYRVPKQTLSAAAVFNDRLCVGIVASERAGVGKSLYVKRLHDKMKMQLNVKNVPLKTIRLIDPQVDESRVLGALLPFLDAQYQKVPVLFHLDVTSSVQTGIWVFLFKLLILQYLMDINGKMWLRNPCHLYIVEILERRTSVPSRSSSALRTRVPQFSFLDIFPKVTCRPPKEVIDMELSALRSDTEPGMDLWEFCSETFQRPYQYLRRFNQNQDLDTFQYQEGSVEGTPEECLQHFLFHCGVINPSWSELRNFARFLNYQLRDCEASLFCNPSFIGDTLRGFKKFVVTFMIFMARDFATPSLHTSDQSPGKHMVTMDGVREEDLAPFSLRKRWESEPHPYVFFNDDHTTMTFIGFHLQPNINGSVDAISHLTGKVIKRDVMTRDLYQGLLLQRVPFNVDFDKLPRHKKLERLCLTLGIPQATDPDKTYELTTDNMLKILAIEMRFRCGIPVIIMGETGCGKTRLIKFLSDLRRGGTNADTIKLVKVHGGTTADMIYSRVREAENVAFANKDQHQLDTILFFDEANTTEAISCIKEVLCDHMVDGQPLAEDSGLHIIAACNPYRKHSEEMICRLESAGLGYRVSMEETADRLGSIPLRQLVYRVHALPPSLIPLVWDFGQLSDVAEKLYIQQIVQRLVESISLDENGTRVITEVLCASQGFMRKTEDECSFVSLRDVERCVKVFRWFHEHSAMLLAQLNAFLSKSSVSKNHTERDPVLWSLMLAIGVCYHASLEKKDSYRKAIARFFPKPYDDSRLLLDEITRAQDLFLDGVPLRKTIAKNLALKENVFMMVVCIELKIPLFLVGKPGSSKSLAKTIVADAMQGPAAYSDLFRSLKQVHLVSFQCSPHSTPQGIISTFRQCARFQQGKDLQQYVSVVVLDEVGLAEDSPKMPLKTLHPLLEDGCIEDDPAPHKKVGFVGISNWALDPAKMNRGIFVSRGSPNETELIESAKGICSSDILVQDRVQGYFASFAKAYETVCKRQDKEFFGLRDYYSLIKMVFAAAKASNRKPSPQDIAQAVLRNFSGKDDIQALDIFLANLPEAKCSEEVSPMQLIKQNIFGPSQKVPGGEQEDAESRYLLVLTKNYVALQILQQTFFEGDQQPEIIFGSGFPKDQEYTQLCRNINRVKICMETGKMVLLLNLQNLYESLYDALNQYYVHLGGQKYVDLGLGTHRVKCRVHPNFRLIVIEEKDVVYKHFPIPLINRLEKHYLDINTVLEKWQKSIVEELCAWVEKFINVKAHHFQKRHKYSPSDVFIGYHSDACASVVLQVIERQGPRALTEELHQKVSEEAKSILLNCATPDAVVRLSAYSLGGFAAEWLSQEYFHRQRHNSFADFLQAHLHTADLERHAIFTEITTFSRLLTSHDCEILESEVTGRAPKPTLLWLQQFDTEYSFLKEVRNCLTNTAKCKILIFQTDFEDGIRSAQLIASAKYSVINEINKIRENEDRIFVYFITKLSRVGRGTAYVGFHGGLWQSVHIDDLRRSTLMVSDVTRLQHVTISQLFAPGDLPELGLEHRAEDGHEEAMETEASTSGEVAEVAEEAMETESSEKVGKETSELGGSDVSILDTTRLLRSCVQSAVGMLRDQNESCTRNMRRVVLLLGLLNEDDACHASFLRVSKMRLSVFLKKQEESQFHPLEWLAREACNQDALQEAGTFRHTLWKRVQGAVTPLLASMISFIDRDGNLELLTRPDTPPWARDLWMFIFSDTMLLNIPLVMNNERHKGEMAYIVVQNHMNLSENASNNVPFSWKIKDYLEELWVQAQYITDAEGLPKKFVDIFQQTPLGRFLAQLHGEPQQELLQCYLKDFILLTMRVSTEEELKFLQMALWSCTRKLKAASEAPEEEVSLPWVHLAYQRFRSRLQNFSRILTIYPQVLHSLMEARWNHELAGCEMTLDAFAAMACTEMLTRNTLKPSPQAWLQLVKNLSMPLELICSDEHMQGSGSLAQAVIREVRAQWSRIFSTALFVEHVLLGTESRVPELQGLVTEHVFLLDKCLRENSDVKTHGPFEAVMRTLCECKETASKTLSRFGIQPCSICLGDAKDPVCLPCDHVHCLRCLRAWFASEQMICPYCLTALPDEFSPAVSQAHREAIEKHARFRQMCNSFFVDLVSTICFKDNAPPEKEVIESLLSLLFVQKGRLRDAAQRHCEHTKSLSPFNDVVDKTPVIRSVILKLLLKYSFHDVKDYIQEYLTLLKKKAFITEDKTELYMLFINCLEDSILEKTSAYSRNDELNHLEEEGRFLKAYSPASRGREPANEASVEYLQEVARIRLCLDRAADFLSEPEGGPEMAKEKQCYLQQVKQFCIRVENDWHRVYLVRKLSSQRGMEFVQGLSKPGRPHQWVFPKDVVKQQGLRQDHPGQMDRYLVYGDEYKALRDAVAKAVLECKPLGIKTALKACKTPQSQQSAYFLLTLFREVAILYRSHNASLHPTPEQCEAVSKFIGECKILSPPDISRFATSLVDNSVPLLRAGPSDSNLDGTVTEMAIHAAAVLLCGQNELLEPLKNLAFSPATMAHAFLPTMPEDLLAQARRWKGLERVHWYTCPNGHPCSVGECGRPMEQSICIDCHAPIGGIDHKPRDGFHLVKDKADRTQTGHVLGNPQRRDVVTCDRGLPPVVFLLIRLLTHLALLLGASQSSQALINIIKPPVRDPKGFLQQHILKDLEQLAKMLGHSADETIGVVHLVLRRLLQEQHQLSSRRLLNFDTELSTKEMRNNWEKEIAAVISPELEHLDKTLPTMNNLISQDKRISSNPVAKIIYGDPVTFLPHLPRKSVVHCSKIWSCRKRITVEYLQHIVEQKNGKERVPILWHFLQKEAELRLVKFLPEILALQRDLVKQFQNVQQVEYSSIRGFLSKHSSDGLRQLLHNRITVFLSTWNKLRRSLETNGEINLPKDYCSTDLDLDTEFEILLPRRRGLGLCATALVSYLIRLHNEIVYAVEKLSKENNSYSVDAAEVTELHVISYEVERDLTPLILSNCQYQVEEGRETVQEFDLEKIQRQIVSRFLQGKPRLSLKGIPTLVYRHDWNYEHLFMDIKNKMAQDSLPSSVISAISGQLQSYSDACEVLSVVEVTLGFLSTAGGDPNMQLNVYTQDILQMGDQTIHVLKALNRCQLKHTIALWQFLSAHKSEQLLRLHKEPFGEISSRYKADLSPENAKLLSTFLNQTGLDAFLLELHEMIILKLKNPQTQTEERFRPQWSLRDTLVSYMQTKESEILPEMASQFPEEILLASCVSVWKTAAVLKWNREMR

This assay concerns the target T1, RNF213-TurboID (Homo sapiens (Human), UniProt Q63HN8 1-5207).
T1 construct: Recombined into HeLa FlpIn-TRex RNF213-KO cells; proximity-labelling bait; also called C-Turbo; 3×-FLAG-RNF213-TurboID; not shown: 3×-FLAG tag; TurboID biotin ligase at the C-terminus
Description: TurboID proximity biotinylation, streptavidin recovery, MS, SAINT express. The source says: Proteins were ranked as potential binding partners by using the SAINT express algorithm³⁶ Immunoblotting (FIG. 9A) and silver staining (FIG. 9B) confirmed that similar amounts of each sample were submitted for analysis. Relatively few proteins labelled by N-Turbo were labelled to an extent greater than their labeling by Control-Turbo (FIG. 9C). […] Among the other top candidates were the major K63-deubiquitinase and NF-κB regulator CYLD and its interacting protein SPATA2 (FIG. 2B, orange-colored arrows). […] Other top C-Turbo interactors included proteins involved in VEGF signaling, which is induced in hypoxia (FLII, MYOF^{39,40}), inflammation and atherosclerosis (MAP4K4, SPTLC1^{41,42}), lipotoxicity (SPTLC1, ALDH1B1^{43,44}), ischemia response (CPEB4⁴⁵), and stroke (SARS2⁴⁶). Top N-Turbo interactors included CYP51A1, which plays a crucial role in cholesterol metabolism and atherosclerosis⁴⁷.
Cells were cultured in standard media but with 10% tetracycline (Tet)-free FBS (Clonetech) for at least 1 week. Tet-free/biotin-free FBS was generated by incubating Tet-free FBS with sterile streptavidin beads overnight followed by centrifugation to remove the beads. N-Turbo, C-Turbo, and Turbo proteins were induced by adding 1 μg/ml Dox to cells for 36 hours. For the last ten min. of incubation, 500 μM of biotin was added to the medium. Labelling reactions was terminated by removing the medium and adding ice-cold PBS to plates, which were kept on ice. Lysates were collected in RIPA buffer without Na-deoxycholate, and biotin-labelled proteins were collected by incubating with high-capacity streptavidin agarose beads for 4 hours at 4° C.
Regarding B1, the binding result is “binds”.

For B2, the binding result is listed as “binds”.

Take B3: the binding result is recorded as “binds”.

As for B4, the binding result is given as “binds”.

With B5, the binding result is given as “binds”.

Regarding B6, the binding result is recorded as “binds”.
